One test deals with T1, Human Tie2 (1-452)c1-Fc (human, UniProt Q02763 23-452).
T1 construct: range 1-452
Put plainly: SPR (Biacore T200); Tie2-Fc captured on anti-human IgG (Fc), Fab at 50 nM; mean of 3. The method, then:
(§1) SPR analysis was carried out in order to evaluate the binding activity of the human Tie2 (1-452)-Fc chimera protein and 23 mutant proteins thereof to the fully human 2-16A2-Fab.
(§2) For SPR analysis, Biacore T200 (GE Healthcare) was used. An anti-human IgG (Fc) antibody (Human Antibody Capture Kit, GE Healthcare) was fixed onto a CM5 sensor chip. The human Tie2 (1-452)-Fc chimeric protein and 23 mutant proteins thereof, diluted with HBS-EP (GE Healthcare) at 5 μg/mL, were each allowed for immobilization, and the capture-amount was measured. Thereafter, the fully human 2-16A2-Fab diluted with HBS-EP to 50 nM, the binding amount thereof to the human Tie2 (1-452)-Fc chimeric protein and 23 mutant proteins thereof were measured. Further, by dividing the binding amount with the capture-amount, the binding amount of the antibody in the unit immobilized antigen (hereinafter referred to as a binding ratio) was calculated. The arithmetic mean of three experiments and the relative value of the binding ratio of each mutant proteins when the binding ratio of the human Tie2 (1-452)-Fc chimeric protein was taken as 100% are shown in Table 7.

The target of the next test is T2, Human Tie2 (1-452)A6-Fc (human, UniProt Q02763 23-452).
T2 construct: range 1-452
Described as above. The method, then: as §1, §2

The target of the next test is T3, Human Tie2 (1-452)y1-Fc (human, UniProt Q02763 23-452).
T3 construct: range 1-452
Described as above. The method, then: as §1, §2

In the next test the target is T4, Human Tie2 (1-452)r5-Fc (human, UniProt Q02763 23-452).
T4 construct: range 1-452
The description is as above. On the procedure: as §1, §2

A further test addresses T5, Human Tie2 (1-452)A4-Fc (human, UniProt Q02763 23-452).
T5 construct: range 1-452
The description is as above. The method, then:
as §1, §2

A further test concerns the target T6, Human Tie2 (1-452)r2-Fc (human, UniProt Q02763 23-452).
T6 construct: range 1-452
The test is described as above. On the procedure: as §1, §2

The target in test [1] is T7, Human Tie2 (1-452)g3-Fc (human, UniProt Q02763 23-452).
T7 construct: range 1-452
The description is as above. On the procedure: as §1, §2

The target in a further test is T8, Human Tie2 (1-452)r1-Fc (human, UniProt Q02763 23-452).
T8 construct: range 1-452
Put plainly: ELISA; Tie2-Fc coated at 1 ug/mL, chemiluminescence. On the procedure:
(§3) The next day, the immobilized solution was removed, and the plate was washed with a TBS-T solution, and incubated for 60 minutes by the addition of 50 μL of a Blocker™ Casein in TBS (Thermo Fisher Scientific Inc., 37532) to perform blocking. The resultant was washed with a TBS-T solution, and TIE-1-Igγ1-LALA, diluted with 0.05% Tween 20 (Nacalai Tesque Inc., 28353-85)—containing Blocker™ Casein in TBS from 0.03 ng/mL to 100 ng/mL through eight steps, was added thereto in the amount of 20 μL per well. The resultant was incubated at room temperature for 90 minutes and then washed with a TBS-T solution three times, and 20 μL of a biotin-labeled anti-human kappa light chain antibody, which had been diluted to 0.1 μg/mL with 0.05% Tween 20-containing Blocker™ Casein in TBS, was added thereto. The resultant was incubated at room temperature for 60 minutes and then washed with a TBS-T solution three times, and 20 μL of alkaline phosphatase-labeled streptavidin, which had been diluted to 0.1 μg/mL with 0.05% Tween 20-containing Blocker™ Casein in TBS, was added thereto. The resultant was incubated at room temperature for 60 minutes and then washed with a TBS-T solution three times, and 50 μL of Chemiluminescent Ultra Sensitive AP Microwell and/or Membrane Substrate (450 nm), which had been 5-fold diluted with 1 mM MgCl₂-containing 20 mM TBS (pH 9.8) as a substrate, was added thereto. The resultant was incubated at room temperature under light-shielding for 40 minutes, and then luminescent intensity thereof was measured with an EnVision™ multi-label counter. The EC₅₀ value of TIE-1-Igγ1-LALA with respect to the human Tie2 (1-452)-Fc chimeric protein and 23 mutant proteins thereof were calculated. The relative value of luminescent intensity of 100 ng/mL TIE-1-Igγ1-LALA as maximum concentration point with respect to human Tie2 (1-452)-Fc chimeric protein and 23 mutant proteins thereof when the convergence value of the sigmoid curve of TIE-1-Igγ1-LALA binding to the human Tie2 (1-452)-Fc chimeric protein which was taken as 100% was calculated (Table 8 and Table 9). Further, the EC₅₀ value and the convergence value were calculated by Sigmoid-Emax model non-linear regression analysis.

The target in another test is T9, Human Tie2 (1-452)g2-Fc (human, UniProt Q02763 23-452).
T9 construct: range 1-452
The description is as above. On the procedure: as §3

In the next test the target is T10, Human Tie2 (1-452)r7-Fc (human, UniProt Q02763 23-452).
T10 construct: range 1-452
Described as above. On the procedure: as §3

Another test addresses T11, Human Tie2 (1-452)m3-Fc (human, UniProt Q02763 23-452).
T11 construct: range 1-452
The description is as above. On the procedure: as §3

In test [2] the target is T7, Human Tie2 (1-452)g3-Fc. Described as above. On the procedure: as §3
Test [3] addresses T12, human Tie2 (1-452)-Fc chimeric protein (human, UniProt Q02763 23-452).
T12 construct: range 1-452; The stated range 1-452 begins at residue 1 of the precursor
The description is as above. On the procedure:
as §3

T7 sequence (Q02763 other isoform, or with tags, fused parts or gaps limits assumed, form in doubt): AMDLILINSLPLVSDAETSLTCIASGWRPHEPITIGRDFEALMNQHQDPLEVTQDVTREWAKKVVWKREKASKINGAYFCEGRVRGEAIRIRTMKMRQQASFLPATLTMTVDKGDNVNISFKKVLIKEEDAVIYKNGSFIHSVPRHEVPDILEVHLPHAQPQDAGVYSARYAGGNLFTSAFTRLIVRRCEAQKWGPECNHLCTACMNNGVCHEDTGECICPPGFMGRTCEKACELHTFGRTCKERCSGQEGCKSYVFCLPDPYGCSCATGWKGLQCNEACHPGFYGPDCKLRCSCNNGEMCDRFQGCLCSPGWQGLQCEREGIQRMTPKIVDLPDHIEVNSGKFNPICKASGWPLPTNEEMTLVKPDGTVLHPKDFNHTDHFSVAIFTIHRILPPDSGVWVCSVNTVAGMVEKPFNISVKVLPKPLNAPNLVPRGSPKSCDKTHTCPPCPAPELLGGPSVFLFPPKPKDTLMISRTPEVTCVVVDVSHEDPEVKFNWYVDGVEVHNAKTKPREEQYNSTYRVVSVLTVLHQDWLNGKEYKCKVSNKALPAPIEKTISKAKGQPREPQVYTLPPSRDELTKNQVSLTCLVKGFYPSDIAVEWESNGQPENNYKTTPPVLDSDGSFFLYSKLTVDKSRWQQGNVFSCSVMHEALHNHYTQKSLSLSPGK
T3 sequence (Q02763 other isoform, or with tags, fused parts or gaps limits assumed, form in doubt): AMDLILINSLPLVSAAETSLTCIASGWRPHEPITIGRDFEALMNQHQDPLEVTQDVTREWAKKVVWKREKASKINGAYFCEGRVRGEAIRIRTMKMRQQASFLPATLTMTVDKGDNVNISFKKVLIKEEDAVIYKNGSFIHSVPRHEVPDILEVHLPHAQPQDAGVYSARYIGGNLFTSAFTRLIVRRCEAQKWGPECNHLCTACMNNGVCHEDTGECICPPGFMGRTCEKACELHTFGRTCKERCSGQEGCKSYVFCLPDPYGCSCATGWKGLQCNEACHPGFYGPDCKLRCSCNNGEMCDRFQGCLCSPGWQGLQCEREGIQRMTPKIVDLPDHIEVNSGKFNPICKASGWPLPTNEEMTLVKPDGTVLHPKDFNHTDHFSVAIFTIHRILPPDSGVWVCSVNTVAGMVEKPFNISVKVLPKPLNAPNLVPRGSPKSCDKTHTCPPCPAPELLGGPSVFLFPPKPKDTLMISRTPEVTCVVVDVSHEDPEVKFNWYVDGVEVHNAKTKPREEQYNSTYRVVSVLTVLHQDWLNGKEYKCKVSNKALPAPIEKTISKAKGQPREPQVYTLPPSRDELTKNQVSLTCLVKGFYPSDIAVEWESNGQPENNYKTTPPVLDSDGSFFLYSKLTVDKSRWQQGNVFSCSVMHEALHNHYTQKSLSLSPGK
T2 sequence (Q02763 other isoform, or with tags, fused parts or gaps limits assumed, form in doubt): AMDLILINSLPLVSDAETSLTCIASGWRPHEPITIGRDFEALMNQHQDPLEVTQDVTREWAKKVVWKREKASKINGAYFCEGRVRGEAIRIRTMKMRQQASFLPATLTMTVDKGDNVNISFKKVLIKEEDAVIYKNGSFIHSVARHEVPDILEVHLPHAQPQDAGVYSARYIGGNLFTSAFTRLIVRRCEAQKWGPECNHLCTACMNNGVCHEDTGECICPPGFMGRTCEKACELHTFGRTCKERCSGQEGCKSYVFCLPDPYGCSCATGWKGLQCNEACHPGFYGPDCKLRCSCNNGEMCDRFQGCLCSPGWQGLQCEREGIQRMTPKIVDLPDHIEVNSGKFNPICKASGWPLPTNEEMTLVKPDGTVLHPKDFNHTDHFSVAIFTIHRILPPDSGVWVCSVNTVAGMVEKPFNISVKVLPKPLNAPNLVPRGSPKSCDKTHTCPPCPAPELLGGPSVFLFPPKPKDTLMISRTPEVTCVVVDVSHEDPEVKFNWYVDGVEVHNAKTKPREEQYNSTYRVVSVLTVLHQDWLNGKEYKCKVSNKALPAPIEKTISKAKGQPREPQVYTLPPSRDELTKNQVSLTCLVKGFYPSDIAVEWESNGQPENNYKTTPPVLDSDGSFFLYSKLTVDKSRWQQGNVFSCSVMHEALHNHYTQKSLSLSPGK
T6 sequence (Q02763 other isoform, or with tags, fused parts or gaps limits assumed, form in doubt): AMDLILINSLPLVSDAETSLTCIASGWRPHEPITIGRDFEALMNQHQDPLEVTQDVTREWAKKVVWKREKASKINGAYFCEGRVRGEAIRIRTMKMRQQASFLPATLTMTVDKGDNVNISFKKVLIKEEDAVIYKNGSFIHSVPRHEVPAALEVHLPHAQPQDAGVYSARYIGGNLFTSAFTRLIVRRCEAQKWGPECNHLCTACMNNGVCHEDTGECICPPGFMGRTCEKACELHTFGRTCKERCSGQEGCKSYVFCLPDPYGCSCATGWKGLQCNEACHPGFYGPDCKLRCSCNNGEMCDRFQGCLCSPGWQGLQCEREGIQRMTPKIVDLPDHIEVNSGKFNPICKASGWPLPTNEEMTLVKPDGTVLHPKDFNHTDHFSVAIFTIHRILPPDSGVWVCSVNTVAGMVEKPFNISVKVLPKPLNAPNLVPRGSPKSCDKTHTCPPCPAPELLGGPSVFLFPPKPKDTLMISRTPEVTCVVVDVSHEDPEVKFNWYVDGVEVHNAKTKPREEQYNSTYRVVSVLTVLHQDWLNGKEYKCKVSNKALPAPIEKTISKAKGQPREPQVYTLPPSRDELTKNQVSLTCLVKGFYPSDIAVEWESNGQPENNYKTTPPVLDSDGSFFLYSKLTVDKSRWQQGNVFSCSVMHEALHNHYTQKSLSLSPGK
T5 sequence (Q02763 other isoform, or with tags, fused parts or gaps limits assumed, form in doubt): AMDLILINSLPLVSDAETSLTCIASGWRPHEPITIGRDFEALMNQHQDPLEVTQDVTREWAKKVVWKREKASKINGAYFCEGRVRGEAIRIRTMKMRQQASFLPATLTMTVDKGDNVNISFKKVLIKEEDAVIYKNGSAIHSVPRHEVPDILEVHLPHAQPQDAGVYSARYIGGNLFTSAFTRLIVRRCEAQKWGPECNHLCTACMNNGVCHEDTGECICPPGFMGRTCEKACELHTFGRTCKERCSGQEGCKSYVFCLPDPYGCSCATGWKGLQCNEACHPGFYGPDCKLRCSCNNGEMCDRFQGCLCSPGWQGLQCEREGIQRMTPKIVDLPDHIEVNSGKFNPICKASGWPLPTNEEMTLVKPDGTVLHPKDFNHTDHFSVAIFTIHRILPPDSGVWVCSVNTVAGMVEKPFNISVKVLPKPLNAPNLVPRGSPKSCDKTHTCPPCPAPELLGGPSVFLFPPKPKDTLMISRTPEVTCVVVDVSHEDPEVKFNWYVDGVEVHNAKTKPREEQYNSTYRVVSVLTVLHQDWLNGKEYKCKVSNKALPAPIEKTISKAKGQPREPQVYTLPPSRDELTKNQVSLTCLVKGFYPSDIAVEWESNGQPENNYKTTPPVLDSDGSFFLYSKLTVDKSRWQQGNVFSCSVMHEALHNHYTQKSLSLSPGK
T1 sequence (Q02763 other isoform, or with tags, fused parts or gaps limits assumed, form in doubt): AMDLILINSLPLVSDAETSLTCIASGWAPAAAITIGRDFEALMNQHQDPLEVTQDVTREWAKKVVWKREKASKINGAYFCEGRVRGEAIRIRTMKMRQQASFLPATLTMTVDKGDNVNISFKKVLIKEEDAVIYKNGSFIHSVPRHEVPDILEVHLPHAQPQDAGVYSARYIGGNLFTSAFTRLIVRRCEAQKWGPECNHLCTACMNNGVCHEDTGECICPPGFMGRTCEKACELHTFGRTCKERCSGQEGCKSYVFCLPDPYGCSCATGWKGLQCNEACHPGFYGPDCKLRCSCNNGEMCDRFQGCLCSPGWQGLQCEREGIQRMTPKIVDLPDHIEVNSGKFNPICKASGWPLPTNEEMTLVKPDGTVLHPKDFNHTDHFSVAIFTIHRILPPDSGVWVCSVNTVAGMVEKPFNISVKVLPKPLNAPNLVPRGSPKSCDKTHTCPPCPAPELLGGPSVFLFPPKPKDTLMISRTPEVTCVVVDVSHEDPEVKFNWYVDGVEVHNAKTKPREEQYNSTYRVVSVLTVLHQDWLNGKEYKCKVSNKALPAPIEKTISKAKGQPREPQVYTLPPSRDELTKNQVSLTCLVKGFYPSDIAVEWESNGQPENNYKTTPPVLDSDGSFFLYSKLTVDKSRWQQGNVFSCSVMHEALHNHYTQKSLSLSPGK

B1: fully human 2-16A2-Fab (Fab, V domains shown)
VH: EVQLVESGGGLVQPGGSLRLSCAASGFTFDDYAMHWVRQAPGKGLEWVAGISWNSGSIVYADSVKGRFTISRDNSKNTLYLQMNSLRAEDTAVYYCAKDIREQLVEDAFDIWGQGTLVTVSS
VL: DIQMTQSPSSLSASVGDRVTITCRSSQSLLHSHRYNYLDWYQQKPGKAPKLLIYLGSNRASGVPSRFSGSGSGTDFTLTISSVQPEDFATYYCMQTLQTPLTFGQGTKVEIKR
notes: also called Fab of the fully human 2-16A2
B1: the Binding ratio amounted to 0.54 in the test with Human Tie2 (1-452)c1-Fc; 0.31 with Human Tie2 (1-452)A6-Fc; 0.25 with Human Tie2 (1-452)y1-Fc; 0.29 with Human Tie2 (1-452)r5-Fc; 0.13 with Human Tie2 (1-452)A4-Fc; 0.28 with Human Tie2 (1-452)r2-Fc. In the test with Human Tie2 (1-452)g3-Fc [1], the Binding ratio was determined as 0.06. Also, the “Relative value (%) of binding ratio (human Tie2 (1-452)-Fc chimeric protein = 100%)” value was 189% in the test with Human Tie2 (1-452)c1-Fc; 109% in the test with Human Tie2 (1-452)A6-Fc; 87% with Human Tie2 (1-452)y1-Fc; 99% with Human Tie2 (1-452)r5-Fc; 44% with Human Tie2 (1-452)A4-Fc; 98% with Human Tie2 (1-452)r2-Fc. The “Relative value (%) of binding ratio (human Tie2 (1-452)-Fc chimeric protein = 100%)” value with Human Tie2 (1-452)g3-Fc [1] came out at 23%.

B2: TIE-1-Igγ1-LALA (antibody, human IgG1, kappa, L234A L235A)
heavy: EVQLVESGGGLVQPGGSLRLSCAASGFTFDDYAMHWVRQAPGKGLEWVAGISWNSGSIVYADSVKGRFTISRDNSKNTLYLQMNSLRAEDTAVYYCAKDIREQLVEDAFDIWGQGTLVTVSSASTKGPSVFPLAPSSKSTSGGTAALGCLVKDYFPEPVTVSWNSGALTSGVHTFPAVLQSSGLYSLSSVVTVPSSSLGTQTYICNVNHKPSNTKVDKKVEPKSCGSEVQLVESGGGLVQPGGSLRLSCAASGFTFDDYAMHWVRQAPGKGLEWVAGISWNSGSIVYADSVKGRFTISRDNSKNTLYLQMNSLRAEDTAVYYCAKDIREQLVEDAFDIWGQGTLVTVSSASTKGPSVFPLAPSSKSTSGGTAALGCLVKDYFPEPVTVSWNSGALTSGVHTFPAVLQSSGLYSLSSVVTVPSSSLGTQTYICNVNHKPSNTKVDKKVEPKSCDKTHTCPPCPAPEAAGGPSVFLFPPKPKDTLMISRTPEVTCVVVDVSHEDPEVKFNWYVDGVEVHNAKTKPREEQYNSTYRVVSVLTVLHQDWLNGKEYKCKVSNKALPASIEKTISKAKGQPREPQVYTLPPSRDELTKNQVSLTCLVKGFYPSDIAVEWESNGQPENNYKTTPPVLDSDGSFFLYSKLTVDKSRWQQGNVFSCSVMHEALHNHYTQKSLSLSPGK
light: DIQMTQSPSSLSASVGDRVTITCRSSQSLLHSHRYNYLDWYQQKPGKAPKLLIYLGSNRASGVPSRFSGSGSGTDFTLTISSVQPEDFATYYCMQTLQTPLTFGQGTKVEIKRTVAAPSVFIFPPSDEQLKSGTASVVCLLNNFYPREAKVQWKVDNALQSGNSQESVTEQDSKDSTYSLSSTLTLSKADYEKHKVYACEVTHQGLSSPVTKSFNRGEC
notes: Tandem tetravalent format: two heavy chains (VH-CH1-linker-VH-CH1-CH2-CH3) and four light chains; also called tetravalent anti-human Tie2 antibody with L234A, L235A and P331S
Regarding B2, the EC50 was 1.1 ng/mL with Human Tie2 (1-452)r1-Fc; 5.5 ng/mL in the test with Human Tie2 (1-452)g2-Fc; 1.1 ng/mL in the test with Human Tie2 (1-452)r7-Fc; 1 ng/mL in the test with Human Tie2 (1-452)m3-Fc; 1.1 ng/mL in the test with Human Tie2 (1-452)g3-Fc [2]; 1.1 ng/mL in [3].

(Values after patent US20160222130A1 (Astellas, published 2016).)
